We go through four substances from paper PMC5123862.

Data set [1] deals with Wild-type PCNA (human) (human) (UniProt P12004).
For data set [2], the system named is DNA polymerase eta (pol η) (human). In words: fluorescence anisotropy. The conditions noted are these: 10 mM Mg2+; 25 mM TrisOAc pH 7.7, 10 mM Mg(OAc)2, 125 mM KOAc, 0.1 mg/ml BSA, 1 mM DTT, ionic strength adjusted to 200 mM with KOAc, room temperature. A general note: Polarisation of emitted light reports the rotation of a fluorescent probe.
Data set [3] has as its system DNA polymerase delta (pol δ), exonuclease-deficient (human). In words: fluorescence anisotropy. The conditions noted are these: 10 mM Mg2+; estimated from partial binding curve, single measurements; 25 mM TrisOAc pH 7.7, 10 mM Mg(OAc)2, 125 mM KOAc, 0.1 mg/ml BSA, 1 mM DTT, ionic strength adjusted to 200 mM with KOAc, room temperature.
Data set [4] has as its system DNA polymerase delta (pol δ), exonuclease-deficient;Cy5-PCNA (human;human). In words: FRET. Conditions: 3'-biotin (Neutravidin bound); 25 mM TrisOAc pH 7.7, 10 mM Mg(OAc)2, 125 mM KOAc, 0.1 mg/ml BSA, 1 mM DTT, ionic strength adjusted to 200 mM with KOAc, room temperature; cited from earlier work.
For data set [5], the system named is DNA polymerase eta (pol η);Cy5-PCNA (human;human). The experiment in a line: FRET. Conditions: pol η titrated onto Cy5-PCNA loaded by RFC (100 nM each), 1 mM ATP; 3'-biotin (Neutravidin bound); 25 mM TrisOAc pH 7.7, 10 mM Mg(OAc)2, 125 mM KOAc, 0.1 mg/ml BSA, 1 mM DTT, ionic strength adjusted to 200 mM with KOAc, room temperature.
Data set [6] has as its target Cy3-pol η (human DNA polymerase eta, full length, N-terminally labeled with Cy3) (human) (UniProt Q9Y253). In words: FRET or BRET; competitive inhibition: pre-assembled Cy3-Pol η•Cy5-PCNA complex (200 nM Cy3-Pol η, 20 nM Cy5-PCNA) titrated with unlabeled competitor (PCNA, (Ub)3-PCNA or pol η, 0-5 μM); dose-response model, Ki from IC50 by the Munson-Rodbard solution; room temperature; replication assay buffer, ionic strength 200 mM.

Bounds are passed on as bounds.

Wild-type PCNA (human) (human), sequence (P12004 whole entry): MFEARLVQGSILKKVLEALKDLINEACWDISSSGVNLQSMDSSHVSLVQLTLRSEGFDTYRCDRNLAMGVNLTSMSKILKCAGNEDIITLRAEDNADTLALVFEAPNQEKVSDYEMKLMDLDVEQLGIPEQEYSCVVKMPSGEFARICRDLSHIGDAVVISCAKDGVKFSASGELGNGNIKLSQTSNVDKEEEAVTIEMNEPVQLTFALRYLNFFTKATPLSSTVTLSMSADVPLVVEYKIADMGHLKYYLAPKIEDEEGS
Cy3-pol η (human DNA polymerase eta, full length, N-terminally labeled with Cy3) (human), sequence (Q9Y253 whole entry): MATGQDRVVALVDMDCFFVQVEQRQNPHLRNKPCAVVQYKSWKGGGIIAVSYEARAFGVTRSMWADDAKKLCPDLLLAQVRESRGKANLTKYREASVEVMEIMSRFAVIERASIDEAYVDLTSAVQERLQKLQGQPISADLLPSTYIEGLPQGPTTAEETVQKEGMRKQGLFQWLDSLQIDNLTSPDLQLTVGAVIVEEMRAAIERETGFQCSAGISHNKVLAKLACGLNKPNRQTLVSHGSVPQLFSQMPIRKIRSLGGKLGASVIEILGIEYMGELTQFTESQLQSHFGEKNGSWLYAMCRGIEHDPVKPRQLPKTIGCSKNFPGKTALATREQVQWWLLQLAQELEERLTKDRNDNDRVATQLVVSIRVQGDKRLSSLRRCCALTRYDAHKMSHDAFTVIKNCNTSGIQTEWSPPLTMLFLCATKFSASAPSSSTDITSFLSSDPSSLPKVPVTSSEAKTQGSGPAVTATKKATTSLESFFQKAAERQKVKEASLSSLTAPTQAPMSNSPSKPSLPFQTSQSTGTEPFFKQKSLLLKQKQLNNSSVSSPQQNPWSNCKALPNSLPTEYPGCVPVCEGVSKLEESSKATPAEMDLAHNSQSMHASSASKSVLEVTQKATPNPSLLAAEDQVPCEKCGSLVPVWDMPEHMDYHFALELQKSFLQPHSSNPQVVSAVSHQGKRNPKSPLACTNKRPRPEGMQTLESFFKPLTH

On to “Exonuclease-deficient human DNA polymerase delta (D402A in the catalytic POLD1 subunit) (from UniProt P28340 1-1107) (complex)”, for which the probability of insertion (Pi) of pol δ in single turnover primer extension on TT P/T DNA in the presence of PCNA (plateau i = 15 to i = 25); no DNA synthesis without PCNA in data set [1] came out at 0.999.

For FLUOR-P/T DNA, the Kd (as a rule, the concentration at which binding is half-saturated) in data set [2] is 29.7 nM; in data set [3], 537 nM.

As for Forked Cy3-P/T DNA, the Kd in data set [4] was below 10 nM; in data set [5], 28 nM.

Consider “Monoubiquitinated PCNA ((Ub)3-PCNA): a single ubiquitin moiety on K164 of each monomer within a homotrimeric clamp ring (from UniProt P12004 1-261; P0CG48 1-76) (complex)”, for which the Ki (commonly a dissociation constant, usually derived from enzyme kinetics or from competition with a known ligand) in data set [6] turned out to be 119 nM.
